120 sequences from the supplement of paper PMC10126150 can be followed below.

± gives the standard deviation of the averaged measurements.
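Further: ATP exposure 15 min at 22 °C before imaging.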

The test system of the data set is ATP. Briefly: switch fluorescence ratio, 500 uM ATP over buffer (Cy3 cluster intensity, sum of 5 cycles each) (fold (ratio)); higher = stronger signal-on switching upon ATP binding; sequences stand for … in TCGTCGGCAGCGTCAGATGTGTATAAGAGACAGTTTTTTTTTTTTTTTTTTTTTTTTT…TC. Particulars: aptamer strand: ATP DNA aptamer (quencher-CACCTGGGGGAGTATTGCGGAGGAAGG + anchor), 100 nM annealed; ATP concentration: 500 uM. The gist of the method: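 Between each of five buffer/ATP cycles, the flow-cell was stripped with NaOH and re-annealed. Each cycle imaged Cy3-labelled switching-strand clusters, annealed to 100 nM quencher-labelled ATP aptamer on a modified Illumina MiSeq flow-cell, first in selection buffer and then after 15 min with 500 uM ATP at 22 °C. The fluorescence ratio is summed target-cycle over summed buffer-cycle Cy3 intensity per cluster, averaged per switch-domain sequence, with clusters outside 100-1000 RFU excluded.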
With GAACTTGGGA, the switch fluorescence ratio was found to be 0.983 ± 0.058.
Under TTTACATAAG stands 1 ± 0.043.
As to TAGAAATTGT, the switch fluorescence ratio worked out at 0.997 ± 0.039.
For TGGCAGTAAA the value was 1.02 ± 0.039; for TTTTGTCTTT, 1 ± 0.032; for CCACAGGGTG, 4.53 ± 1.5.
With AATTATCTGC, the switch fluorescence ratio amounted to 0.976 ± 0.015.
Under CAGCGCCGTT stands 1.006 ± 0.004.
Under ACGGGAAGGC stands 1.09 ± 0.035.
Under ATGAGCGGGG stands 0.98 ± 0.058; under TCCTTAGTTC, 0.969 ± 0.035.
As for TTACTTTTGC, the switch fluorescence ratio was determined as 1.01 ± 0.065.
For TTTTGCAGGT the value was 1.03 ± 0.026; for CGATATGTCG, 1.41 ± 0.33.
Under GCTCCTACGA stands 1.46 ± 0.046; under GCGGAGAGTT, 1.01 ± 0.019.
For AAGAAAGGCA the value was 0.998 ± 0.033; for AGAAGCTAAG, 0.996 ± 0.015; for CGGTTGTCGA, 1.01 ± 0.023.
Turning to TTAGTGGACT, the switch fluorescence ratio amounted to 1.02 ± 0.016.
Under TGGGGTATTG stands 0.974 ± 0.012.
Under CAGAGAAAC stands 1.1 ± 0.12; under TTTGGCCCTT, 1.02 ± 0.027; under AATCGTCTTT, 0.961 ± 0.024.
For TTTGTGGTCC the value was 0.98 ± 0.039; for GCAGGTCTGT, 0.9688 ± 0.0037; for TTTGTTTTC, 1.02 ± 0.018.
Consider GGGTTGATGA, for which the switch fluorescence ratio is 1.012 ± 0.0093.
Under GGGGCGGCCT stands 0.979 ± 0.04.
For CGTTTAATGG the value was 0.984 ± 0.0086; for GATTTGGAGG, 0.97361 ± 7.9e-05.
Under GGTAGAAAGG stands 1.03 ± 0.093; under GGGGGCGGGA, 1.02 ± 0.059.
Consider GGATGTTATT, for which the switch fluorescence ratio was found to be 0.9915 ± 0.0094.
For AGGGTGAATG the value was 1 ± 0.0097; for TGTAGAGGGC, 1.04 ± 0.026.
Under TTGGTGATTG stands 0.976 ± 0.014; under TTTGCTTGGG, 1.02 ± 0.033.
Under TTGATTTTGA stands 1.04 ± 0.037; under CCTGCTGTCC, 1.16 ± 0.051; under GACTCGGGCG, 1.014 ± 0.0082.
On to GAGAGTATAA, for which the switch fluorescence ratio turned out to be 0.99 ± 0.022.
Under TCCGAACCTT stands 1.88 ± 0.086; under TTTAGATAAT, 1 ± 0.014; under GATTTTGGGG, 1.01 ± 0.029.
For CACGTTTGGG the value was 1.01 ± 0.027.
Under CCGAGCTTGA stands 1.61 ± 0.085.
ACAAGAAAGG: the switch fluorescence ratio was found to be 1.01 ± 0.035.
For TAGGGGGTCT the value was 1.21 ± 0.47.
For CAGAGTAATA the value was 1.45 ± 0.1; for AGATCGAAGG, 1.03 ± 0.018; for AAGCATTGTT, 0.999 ± 0.035.
For ACATTAATTC the value was 0.99573 ± 0.00079.
In the case of ACTTTACGGC, the switch fluorescence ratio came to 1.286 ± 0.0091.
As for TTATCGCTTG, the switch fluorescence ratio came out at 0.9974 ± 0.003.
For TGGGGCGTGC the value was 1.06 ± 0.065; for AGTTGTGTCG, 0.955 ± 0.02.
Under TAACTTTCTT stands 0.987 ± 0.025; under GCTGTTACGG, 0.983 ± 0.016; under TAAAGGGCGT, 0.967 ± 0.021.
Under TGGGTCGGGA stands 0.982 ± 0.031; under ATATGATTAG, 0.993 ± 0.021.
Consider CGGGTGTGTG, for which the switch fluorescence ratio was 0.981 ± 0.019.
For TGTCGGGTTA the value was 1.01 ± 0.027; for CAATTCTGTA, 0.997 ± 0.028.
Regarding CGACGATACG, the switch fluorescence ratio was 0.991 ± 0.022.
Under CAGTTTGCTG stands 0.979 ± 0.018.
Consider ATATACAGGG, for which the switch fluorescence ratio was 1.06 ± 0.024.
Under TGGGTATGTG stands 0.972 ± 0.038.
Under AGAAAATTGT stands 1.01 ± 0.025; under ACTGTAAGGC, 1.07 ± 0.02; under GGTTCATTAG, 1.01 ± 0.037.
Under TTTTTTAAGG stands 1 ± 0.034.
Turning to GCTCTATGTA, the switch fluorescence ratio was 1.03 ± 0.014.
In the case of TTTCACAAAG, the switch fluorescence ratio came to 1 ± 0.018.
Under TGTTTTGGTG stands 1.01 ± 0.027; under GTTTTCGGAT, 0.983 ± 0.013.
Under GCTCTTGGGC stands 0.999 ± 0.012; under TTTAGGGTGC, 1.03 ± 0.079.
On to TGGGACGGTC, for which the switch fluorescence ratio worked out at 1.1 ± 0.051.
For TGTGGGGTCG the value was 1.01 ± 0.058; for TATAAAAAAA, 1.02 ± 0.051.
For GTTCGACTCC the value was 1.15 ± 0.014; for TGCTCAATGA, 0.9737 ± 0.0075.
Take AAGGGGCCGG: the switch fluorescence ratio worked out at 1.0099 ± 8.3e-05.
For the sequence TTAACCGGGT, the switch fluorescence ratio was 1.01 ± 0.057.
Under CGCTGGGTGG stands 1.02 ± 0.037; under TTCCCCATTG, 1.09 ± 0.023; under TCTTTGCGCC, 1.06 ± 0.019.
Under GTGTTGGTTG stands 0.982 ± 0.038; under AGGGCTGAGC, 0.996 ± 0.052.
For TTGAAGGCGT, the switch fluorescence ratio turned out to be 1 ± 0.026.
Consider ATGCGCCCTG, for which the switch fluorescence ratio is 1 ± 0.015.
For AATGTTTTGT the value was 0.994 ± 0.021.
On to GATTTGGGCG, for which the switch fluorescence ratio came to 1.038 ± 0.0054.
Under TGGCCGGAAT stands 1.04 ± 0.03; under CTTTTAAGGC, 1.1 ± 0.15; under GCTGAATAAG, 0.9815 ± 0.0088.
Turning to TATTCAGTCG, the switch fluorescence ratio was 0.9927 ± 0.0051.
Under CAAGGTCAGC stands 0.9798 ± 0.0071; under TTTTACCACT, 1.0422 ± 0.00058; under GGTTCAGCGC, 1.03 ± 0.041.
Under ACGTATGGCT stands 0.973 ± 0.021.
Under AAATGGGTGG stands 0.997 ± 0.025; under GGGTATTTTT, 0.994 ± 0.014; under ATCAGGGGCA, 1.057 ± 0.0049.
As to GTTATCGGAC, the switch fluorescence ratio was 1.01 ± 0.015.
For TTACCTTTCT the value was 1.64 ± 0.64; for TTTTTTCTG, 1.04 ± 0.097.
On to TCGGGAGGCT, for which the switch fluorescence ratio was determined as 1 ± 0.028.
Under TAGGGCACGG stands 1.02 ± 0.035; under CCTTTTTCAC, 1.03 ± 0.032.
For GTATGGGGCG the value was 1.01 ± 0.081; for TTGAGCATTT, 0.982 ± 0.03.
Under CCACTGTGGT stands 0.978 ± 0.013; under GTTCTCTGGG, 0.987 ± 0.034.
With AGGCGATATA, the switch fluorescence ratio turned out to be 1 ± 0.024.
For TTAGCTGCGG the value was 0.9951 ± 0.0042; for CTCTGAAATC, 2.997 ± 0.01.
Under TTTGGACATC stands 1.02 ± 0.027.
